Drawing on US20260265389A1 (CANTAI THERAPEUTICS, published 2026), this text covers binding result and Kd for 8 molecules.

Substitutions are numbered along the chain they refer to.

Experiment [1] has as its target T1, biotinylated recombinant human TL1A (human, UniProt O95150 72-251, limits assumed, biotinylated (site not stated)).
T1 sequence: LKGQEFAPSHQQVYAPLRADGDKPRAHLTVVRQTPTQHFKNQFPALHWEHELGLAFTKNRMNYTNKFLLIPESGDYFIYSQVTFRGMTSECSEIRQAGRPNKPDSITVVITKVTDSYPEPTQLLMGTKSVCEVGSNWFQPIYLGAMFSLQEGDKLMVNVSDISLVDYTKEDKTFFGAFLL
Nature of the experiment: BLI (Octet); by Example 12 biotinylated recombinant human TL1A on streptavidin sensors, dipped into the bispecific antibody for 0-300 s; the sheet does not name the loaded protein or the antibody concentration. How it is done: Kinetic determination and assessment of pH dependency was performed on Octet BLI platform. Briefly, knob-in-hole bispecific antibodies that were prepared according to method described in Example 10 were used for this assay. Briefly, biotinylated recombinant human TL1A was diluted to 7.5 nM in kinetics buffer (1×PBS pH 7.4, 0.1% BSA, 0.05% Tween20, 0.05% sodium azide) and loaded onto streptavidin sensors for a period of 5 minutes. Sensors were then baselined in kinetics buffer before being dipped into bispecific antibodies diluted to varying concentrations, with two-fold serial dilutions for a 5-minute association step, followed by a 15-minute dissociation step. Top concentrations were determined based on approximate KD determined during a scouting experiment. Referencing was performed using a loaded sensor that was dipped into buffer as opposed to antibody, as well as unloaded sensors dipped into antibody. Then, data was aligned and fitted.

The target of experiment [2] is T2, IL-23 heterodimer (IL-23α & IL-12β) (Homo sapiens (Human), UniProt Q9NPF7 20-189; P29460 23-328).
T2 construct: also called heteromeric IL-23
T2 sequence 1: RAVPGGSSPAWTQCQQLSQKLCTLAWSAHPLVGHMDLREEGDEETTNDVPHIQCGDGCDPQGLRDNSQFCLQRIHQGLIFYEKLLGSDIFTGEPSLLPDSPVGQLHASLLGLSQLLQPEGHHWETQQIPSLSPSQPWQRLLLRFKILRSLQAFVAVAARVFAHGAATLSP
T2 sequence 2: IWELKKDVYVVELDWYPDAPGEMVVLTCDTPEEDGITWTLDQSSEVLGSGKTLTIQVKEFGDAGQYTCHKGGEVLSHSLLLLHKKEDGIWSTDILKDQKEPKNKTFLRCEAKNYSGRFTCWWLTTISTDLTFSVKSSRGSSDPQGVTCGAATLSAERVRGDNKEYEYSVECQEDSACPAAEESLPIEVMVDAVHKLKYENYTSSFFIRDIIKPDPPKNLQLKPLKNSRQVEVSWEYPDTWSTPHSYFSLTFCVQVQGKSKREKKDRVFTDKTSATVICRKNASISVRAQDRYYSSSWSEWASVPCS
Briefly: BLI (Octet); how IL-23 was offered is not described.

The next experiment has as its target T3, monomeric TL1A (human, UniProt O95150 72-251, limits assumed).
T3 construct: also called TL1A monomer
T3 sequence: T1 sequence
Nature of the experiment: SPR, antibody captured by anti-human IgG-Fc, TL1A monomer as analyte, pH 7.4; pH 7.4, monomeric TL1A as analyte. The method, then: Binding kinetic assays were performed for determining pH dependent binding activity of a lead TL1A binding antibody candidate, as identified in Example 3, and 7 different variants thereof using surface plasma resonance (SPR) spectroscopy. Each TL1A binding candidate comprised a VH sequence that comprised at least one modification in CDR or framework region of variable region of the VH sequence. Briefly, an amine-coupled anti-human IgG-Fc specific polyclonal antibody was immobilized on a SPR sensor chip. All TL1A binding antibody candidates were expressed at 1 mL scale in chinese hamster ovary (CHO) cells for 6 days, and supernatant was cleared of cells by centrifugation. To form a captured antibody array, TL1A binding antibody candidates were batch diluted to approximately 1.7-13.3 nM (either after Protein A purification or directly from CHO supernatant) and injected onto the chip. Non-regenerative kinetics were measured by injecting TL1A monomer starting at a concentration of 2.57E-10 M, with 6-fold increase in concentration up to 3.33E-07 M at pH 7.4 and 5.8, respectively. Likewise, non-regenerative kinetics were also measured for TL1A trimer starting at a concentration of 2.57E-10 M, with 6-fold increase in concentration up to 3.33E-07 M at pH 7.4. Each analyte injection flowed over the array at […] for a 5-minute association phase, followed by a 10-minute buffer dissociation phase. Binding was detected and relative capture response units (RU) were collected for each antibody on the surface.

B1: bispecific antibody candidate II-1 (bispecific antibody, IgG1, V domains shown)
VH 1: QVQLVQSGAEVKKPGSSVKVSCKASGGTFTIYAISWVRQAPGQGLEWMGGILPIFGTGHYVQKFQGRVTITADESTSTSYMELSSLRSEDTAVYYCAREPENWGQGTLVTVSS
VH 2: QVQLQESGPGLVEPSGTLSLTCAVSGGSISSRNWWSWVRQPPGKGLEWIGEIYHSGSTNYNPSLKSRVTISVDKSKNQFSLNLNSVTAADTAVYYCARDNDILTGYFDGYFDYWGQGTLVTVSS
VL: not shown
notes: hIgG1, 1:1 knob-in-hole; also called 11-1; knob-in-hole bispecific antibody
For the molecule B1, the binding result in experiment [1] and in experiment [2] was “binds” throughout.

B2: bispecific antibody candidate II-2 (bispecific antibody, IgG1, V domains shown)
VH 1: QVQLVQSGAEVKKPGASVKVSCTASGDAFTGDSIHWVRQAPGQGLEWMGWITPNSGGTSYAQRFQGRVTLTRDTSISTVYMDLRRLRSDDTAVYFCASGLTVPFDYWGQGTLVTVSS
VH 2: B1 VH 2
VL: not shown
notes: hIgG1, 1:1 knob-in-hole; also called 11-2; knob-in-hole bispecific antibody
On to B2, for which the binding result in experiment [1] and in experiment [2] was “binds” each time.

B3: TL1A binding antibody candidate 7 of TABLE 47 (VH SEQ ID NO: 909, VL SEQ ID NO: 1768) (antibody, V domains shown)
VH: B1 VH 2 with E13K, N84K
VL: not shown
notes: It was expressed in CHO cells and captured by an anti-human IgG-Fc antibody (human IgG Fc)
Turning to B3, the Kd with monomeric TL1A amounted to 4.57 nM.

B4: TL1A binding antibody candidate 5 of TABLE 47 (VH SEQ ID NO: 907, VL SEQ ID NO: 1768) (antibody, V domains shown)
VH: B1 VH 2 with E13K, S30T
VL: not shown
notes: as for B3
As for B4, the Kd with monomeric TL1A was determined as 5.19 nM.

B5: TL1A binding antibody candidate 6 of TABLE 47 (VH SEQ ID NO: 908, VL SEQ ID NO: 1768) (antibody, V domains shown)
VH: B1 VH 2 with E13K, L83V
VL: not shown
notes: as for B3
The molecule B5 registered a Kd with monomeric TL1A of 3.05 nM.

B6: TL1A binding antibody candidate 8 of TABLE 47 (VH SEQ ID NO: 933, VL SEQ ID NO: 1768) (antibody, V domains shown)
VH: B1 VH 2
VL: not shown
notes: as for B3
B6 showed an equilibrium dissociation constant (Kd) in the experiment with monomeric TL1A of 9.66 nM.

B7: TL1A binding antibody candidate 2 of TABLE 47 (VH SEQ ID NO: 903, VL SEQ ID NO: 1768) (antibody, V domains shown)
VH: B1 VH 2 with E13K, T104D
VL: not shown
notes: as for B3
The molecule B7 yielded a dissociation constant (Kd) in the experiment with monomeric TL1A of 5.53 nM.

B8: TL1A binding antibody candidate 1 of TABLE 47 (VH SEQ ID NO: 902, VL SEQ ID NO: 1768) (antibody, V domains shown)
VH: B1 VH 2 with E13K, T69I
VL: not shown
notes: as for B3
As for B8, the Kd with monomeric TL1A came to 6.46 nM.
